In the nanobody polyreactivity screen of Harvey et al. (2022):

Assay: yeast display, Sf9 membrane polyspecificity reagent, FACS + sequencing; frameworks hold sequencing errors
In short: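 Galactose induction of a Saccharomyces cerevisiae BJ5465 synthetic nanobody display library ran 36–48 hours. The cells were then stained for 1 hour at 4 °C with 10% biotinylated, detergent-solubilized Sf9 membrane reagent, pulled down on streptavidin microbeads and FACS-sorted into low and high (top ~1%) gates on expression and reagent-binding fluorescence. Labels for polyreactivity follow the gate of origin.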

| Sequence | polyreactivity (PSR sort gate) |
| --- | --- |
| QVQLVESGGGLVQAGGSLRLSCAASGRIFRGYGMAWYRQAPGKERELVAAISRGGNTDYADSVKGRFTISRDNANNTVYLQMNSLKPEETAVYYCAVGYVSYRKLYLYNSWGQGTQVTVSS | high polyreactivity |
| QVQLQEGGGGLVQAGGSLRLSCAASGYISYGDVMGWYRQAPGEERELVASIGLDATTNYADSVKGRFTISRDNAKITVYVQMNSLKPEDTAVYYCAADVGSGVLCGYWGQGTQMTVSS | high polyreactivity |
| QVQLVESGGGLVQAGGSLPLSCAASGSIFTYNTMGSYRQAPGKERELVATISWSGGRTYYADSVKGRVTISRDNAKNTVYLQMNSLKPEDTAVYYCAAVYYSYYGYFLPYGYWGQGTQVTVSS | high polyreactivity |
| QVQLVESGGGLVQAGGSLRLSCAASGSTFKFYAMGWYRQAPGKERELVAAISGSSGSTYYADSVKGRFTISRDNAKNTVYLQMNSLKPEDTAVYYCNTQYSRYYTRYSAYDYWGQGTQVTVSS | low polyreactivity |
| QVQLVESGGGLVQAGGSLRLSCAASGIIFTRYVMGWYRQAPRKERELVAAISWSGGRTYYADSVKGRFTISRDNAKNTVYLQMNSLKPEDTAVYYCAAGIYQHAGGDYWGQGTQVTVSS | high polyreactivity |
| QVQLVESGGALVQAGGSLRLSCAASGITFAYYAMGWYRQAPRKERELVASIRTGGSTYYADSVKGRFTISRDNAKNTVYLQMNSLKPEYTAVYYCARRYRTPYDYWGQGTQVTVSS | high polyreactivity |
| QVQLVESGGRLVQAGGSLRLSCAASGFTFPTYAMGWYRQAPGKERELVAAITRGGSTYYADSVKGRFTISRDNAKNTVYLQMNSLKPEDTAVYYCAADDPWYEEDYWGQGTQVTVSS | low polyreactivity |
| QVQLVESGGGLVQAGGSLRLSCAASGRIFRRNAMGWYRQAPGKERELVAAISTRGSSTYYADSVKGRFTISRDNAKNTVYLQMNSLKPEDTAVYYCAADAYFIYSRYWYDYWGQGTQVTVSS | high polyreactivity |
| QVQLVESGGGLVQAGGSLRLSCAASGSILHAYALGWYRQAPGTERELVAAINWSGGSTYYADSVKGRFTISRDNAKNTVYLQMNSLKPEDTAVYYCAKVWRYGRYEYGYWGQGTQVTVSS | high polyreactivity |
| QVQLVESGGGLVQAGGSLRLSCAASGRIFWANAMGWYRQAPGKERELVAAISYSGVSTYYADSVKGRFTISRDNAKNTVYLQMNSLIPEDTAVYYCAADRYRKYYYWGQGTQVTVSS | high polyreactivity |
| QVQLVESGGGLVQAGGSLRLSCAASGSTFGFYAMGWYTHAPGKERELVAGITRVGSTNYADSVKGRFTISRDNAKNTVYLQMNSLKPEVTAVYYCNRRYTPYTWPYGYWGQGTQVTVSS | high polyreactivity |
| QVQLVESGGGLVQAGGSLRLSCAASGRIFVRNAMGWYRQAPGKEREFVAAISRSGGSTYYADSVKGRFTISRDNAKNTVYLQMNSLKPEDTAVYYCAADYPKTYTSKFNYWGQGTQVTVSS | high polyreactivity |
| QVQLVESGGGLVQAGGSLRLSCDASGRIFRYNAMGWYRQAPGKEREFVAAITWRGGSTYYADSVKGRFTISRDNAKYTVYLQMNSLKPEDTAVYYCATRSPFGAAYEYGYWGQGTQVTVSS | high polyreactivity |
| QVQLVESGGGLVQAGGSLRLSCAASGSIFEYYAMGWYRQAPGKERELVADITTIGGSTYYADSVKGRFTISRDNAKNTVYLQMNSLKPEDTAVYYCAADYFTTFYWYDYWGQGTQVTVSS | high polyreactivity |
| QVQLVESGGGLVQAGGSLRLSCAASGSIFGRNDMGWYRQAPGKERELVAAISGDTTTNYADSVKGRFTISRDNAKNTVYLQMNSLKPEDTAVYYCNRYSGGRWYPEYYYWGQGTQVTVSS | high polyreactivity |
| QVQLVESGGGLVQAGGSLRLSCAASGSIFVGKAMGWYRQAPGKERELVAAISSSGGRTYYADSVKGRFTISRDNAKNTVYLQMNSLKPEDTAVYYCAADVSYKVKSWSVYRYEYWGQGTQVTVSS | high polyreactivity |
| QVHLVESGGGLVQAGGSLRLSCAASGRTFVAYAMGWYRQAPAKERELVARISSGGSTYYADSVKGRFTISRDNAKNTVYLQMNSLKPEDTAVYYCAADRGPFFVPWRRYDYWGQGTEVTVSS | low polyreactivity |
